Consider one protein from paper PMC4547048.

Substrate in the data set: CC(C)C[C@H](N)C(=O)Nc1ccc([N+](=O)[O-])cc1
The data set can be described thus: purified protein. The format is biochemical, Anopheles gambiae. To be noted: 1 mM MnCl2, pH 7.5, 10 mM Tris-HCl, 150 mM NaCl, 25 °C.

B1: AnAPN1 (near full-length recombinant, rFL-APN1) (Anopheles gambiae) (protein)
chain: PPYKSSGIYEEEPQLPGASDLSGGVASDEIGVAPAQAVDERYRLPTTSIPIHYDLHLRTEIHRNERTFTGTVGIQLQVVQATDKLVMHNRGLVMSSAKVSSLPNGVTGAPTLIGDVQYSTDTTFEHITFTSPTILQPGTYLLEVAFQGRLATNDDGFYVSSYVADNGERRYLATTQFESTSARMAFPCYDEPGLKATFTVSITHSLSYKAISNMPQKTTTDIETDMRTTFFEKTPAMSTYLLAFVVSDFQLRLSGAQRVYVRPNAFNEATFALEAGVKILKVLDDHLGIPYDTYMPKLDQIAIPDFAAGAMENWGLVTYREQALLFNPAVSTYRGKTNVATTIAHEYAHQWFGNLVSPEWWEYIWLNEGFATLYEFYALDMAYPGQEYWELFNQQVIQYAMGQDGQASTRPMNWNAATPGEISALFDRVAYDKSGSVLNMMRHVLGDDNWKAGLKAYLTDRALQGAVDEQLYAGLQSAIEGKGVLPNGVTVAQIMRTWTNEAGYPVLNVRRSYDTGDVIISQERFYNDRKVPNTNIWMIPYNYVHQAKADFNEFDDFQWLATKAARIETTVPANEWIVFNKQQVGYYRVNYDEHNWELITNALHENWASIHRLNRAQLIDDAYWLARSGRLDLRVALRFMTYLRNEREYAPWTAANVALTYFNNRLRGTAEYHNFLIFVDALIEDIYSLLTIDAVSPDDTLLHKYLVQTISTWACSMGYTDCLMKTAALLKAEASGTGPAVHPDIASVTYCYGMRSALESEFQYLYRKMMNSKNLAERTMLIDSLGCSNNKEFLKAFLTTALGSGTGVEINYRADERRRVVQAIYSGGRTGVDALIEFLMDPALVNEFVSTLSTSTLNSALSAIASRTNNVEEMNKLNALITALGSRVNSQTAANLRTTAQANLDWVNGFEGLMLSNFLAE
For B1, the Michaelis constant (Km) came to 1840 µM.

One may read the Km as the substrate concentration at which the rate is half of its maximum.
